This is an account of results in the supplement of paper PMC9112550, “Optimization of the antimicrobial peptide Bac7 by deep mutational scanning” (BMC Biology, 2022).

This series deals with Escherichia coli TOP10. Kind of series: shrunken log2 fold change of peptide-encoding DNA abundance (4.5 h post-induction vs induction); higher = less antimicrobial activity (less host growth inhibition). Conditions: time post-induction: 4.5 h; library: site-saturation at positions 5, 18, 19, 20.
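Also: peptides expressed intracellularly from a pBAD plasmid library in pooled LB shake-flask culture, induced with 0.3% L-arabinose, DNA abundance read by NGS, three biological replicates, DESeq2 with apeglm shrinkage.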

Regarding RRIRDRPPRLPRPRPRPEHHPRP, the “shrunken log2 fold change” value was determined as 0.155.

For the sequence RRIRCRPPRLPRPRPRPDRCPRP, the “shrunken log2 fold change” value came to 0.16.

In the case of RRIRVRPPRLPRPRPRPERPPRP, the “shrunken log2 fold change” value was 0.0183.

On to RRIRRRPPRLPRPRPRPSKRPRP, for which the “shrunken log2 fold change” value was -0.0523.

With RRIRKRPPRLPRPRPRPRMHPRP, the “shrunken log2 fold change” value was 0.557.

For RRIRIRPPRLPRPRPRPWVFPRP, the “shrunken log2 fold change” value is -0.397.

As to RRIRDRPPRLPRPRPRPSKVPRP, the “shrunken log2 fold change” value was -0.152.

RRIRERPPRLPRPRPRPKYEPRP: the “shrunken log2 fold change” value is -0.303.

Consider RRIRWRPPRLPRPRPRPAFIPRP, for which the “shrunken log2 fold change” value worked out at 0.0835.

In the case of RRIRRRPPRLPRPRPRPQNDPRP, the “shrunken log2 fold change” value was -0.212.

As for RRIRTRPPRLPRPRPRPRPKPRP, the “shrunken log2 fold change” value came out at 0.303.

Take RRIRERPPRLPRPRPRPCMYPRP: the “shrunken log2 fold change” value is -0.201.

Regarding RRIRKRPPRLPRPRPRPAMQPRP, the “shrunken log2 fold change” value was determined as 0.115.

As for RRIRGRPPRLPRPRPRPSCQPRP, the “shrunken log2 fold change” value came to 0.925.

As for RRIRCRPPRLPRPRPRPKGWPRP, the “shrunken log2 fold change” value came out at 0.811.

For RRIRHRPPRLPRPRPRPIILPRP, the “shrunken log2 fold change” value is -0.113.

For RRIRARPPRLPRPRPRPDPNPRP, the “shrunken log2 fold change” value was 0.531.

In the case of RRIRARPPRLPRPRPRPGIMPRP, the “shrunken log2 fold change” value turned out to be 0.113.

RRIRWRPPRLPRPRPRPMYAPRP: the “shrunken log2 fold change” value was 0.325.

Consider RRIRLRPPRLPRPRPRPHKDPRP, for which the “shrunken log2 fold change” value was -0.697.

As for RRIRTRPPRLPRPRPRPLFPPRP, the “shrunken log2 fold change” value was -0.415.

Turning to RRIRERPPRLPRPRPRPACEPRP, the “shrunken log2 fold change” value was -0.112.

Regarding RRIRCRPPRLPRPRPRPMTCPRP, the “shrunken log2 fold change” value is -0.205.

For the sequence RRIRSRPPRLPRPRPRPPSDPRP, the “shrunken log2 fold change” value was 0.385.

Turning to RRIRSRPPRLPRPRPRPSPGPRP, the “shrunken log2 fold change” value turned out to be 0.312.

On to RRIRGRPPRLPRPRPRPQMHPRP, for which the “shrunken log2 fold change” value turned out to be 0.989.

RRIRKRPPRLPRPRPRPAEYPRP: the “shrunken log2 fold change” value was found to be 0.345.

With RRIRMRPPRLPRPRPRPESYPRP, the “shrunken log2 fold change” value was -0.00254.

In the case of RRIRWRPPRLPRPRPRPTKRPRP, the “shrunken log2 fold change” value was 0.202.

On to RRIRARPPRLPRPRPRPERVPRP, for which the “shrunken log2 fold change” value was 0.577.

On to RRIRNRPPRLPRPRPRPSMWPRP, for which the “shrunken log2 fold change” value was -0.0524.

On to RRIRHRPPRLPRPRPRPIRTPRP, for which the “shrunken log2 fold change” value was -0.0747.

For RRIRARPPRLPRPRPRPCFTPRP, the “shrunken log2 fold change” value is -0.172.

With RRIRPRPPRLPRPRPRPYHHPRP, the “shrunken log2 fold change” value is -0.655.

Take RRIRRRPPRLPRPRPRPDDRPRP: the “shrunken log2 fold change” value is 0.0215.

RRIRPRPPRLPRPRPRPKCAPRP: the “shrunken log2 fold change” value was 0.0543.

With RRIRDRPPRLPRPRPRPQYIPRP, the “shrunken log2 fold change” value is -0.246.

For the sequence RRIRKRPPRLPRPRPRPPFLPRP, the “shrunken log2 fold change” value was -0.0158.

As to RRIRTRPPRLPRPRPRPYMPPRP, the “shrunken log2 fold change” value is -1.27.

With RRIRWRPPRLPRPRPRPHEIPRP, the “shrunken log2 fold change” value was 0.0984.

As to RRIRLRPPRLPRPRPRPRANPRP, the “shrunken log2 fold change” value came to 0.126.

For the sequence RRIRTRPPRLPRPRPRPWCVPRP, the “shrunken log2 fold change” value was -0.212.

In the case of RRIRNRPPRLPRPRPRPWLNPRP, the “shrunken log2 fold change” value was -0.00264.

Regarding RRIRVRPPRLPRPRPRPAAWPRP, the “shrunken log2 fold change” value came to 0.136.

For the sequence RRIRFRPPRLPRPRPRPSAFPRP, the “shrunken log2 fold change” value was -0.204.

On to RRIRCRPPRLPRPRPRPNVSPRP, for which the “shrunken log2 fold change” value came out at 0.0773.

As to RRIRLRPPRLPRPRPRPRSCPRP, the “shrunken log2 fold change” value is -0.0664.

With RRIRGRPPRLPRPRPRPLRYPRP, the “shrunken log2 fold change” value is 0.688.

RRIRQRPPRLPRPRPRPSANPRP: the “shrunken log2 fold change” value was determined as 0.0611.

Regarding RRIRMRPPRLPRPRPRPFPRPRP, the “shrunken log2 fold change” value is -0.0223.

Regarding RRIRDRPPRLPRPRPRPTQNPRP, the “shrunken log2 fold change” value was 0.789.

Take RRIRARPPRLPRPRPRPGDRPRP: the “shrunken log2 fold change” value was -0.00146.

RRIRLRPPRLPRPRPRPPQIPRP: the “shrunken log2 fold change” value is 0.0736.

Turning to RRIRNRPPRLPRPRPRPPNGPRP, the “shrunken log2 fold change” value was -0.00827.

Regarding RRIRVRPPRLPRPRPRPLIFPRP, the “shrunken log2 fold change” value is -0.317.

RRIRQRPPRLPRPRPRPRKFPRP: the “shrunken log2 fold change” value was 0.214.

Turning to RRIRIRPPRLPRPRPRPCRPPRP, the “shrunken log2 fold change” value is -0.0283.

In the case of RRIRGRPPRLPRPRPRPPFKPRP, the “shrunken log2 fold change” value was found to be 0.659.

Take RRIRVRPPRLPRPRPRPFNIPRP: the “shrunken log2 fold change” value is -0.425.

For RRIRSRPPRLPRPRPRPFGNPRP, the “shrunken log2 fold change” value is -0.00151.

RRIRNRPPRLPRPRPRPHYDPRP: the “shrunken log2 fold change” value was -0.775.

For RRIRIRPPRLPRPRPRPITWPRP, the “shrunken log2 fold change” value was -0.551.

RRIRQRPPRLPRPRPRPADFPRP: the “shrunken log2 fold change” value was -0.193.
